Consider four substances from patent US20210087298A1.

In test [1] the target is HER2 (UniProt P04626). Kind of test: apparent Kd, flow cytometry on SKBr3 cells.
Test [2] addresses HER2 (UniProt P04626). Kind of test: apparent Kd, flow cytometry on SKOV3 cells. For orientation: In flow cytometry, cells or beads pass a laser one at a time.
The target in test [3] is HER2 (UniProt P04626). Kind of test: apparent Kd, flow cytometry on JIMT-1 cells.
In test [4] the target is HER2 (UniProt P04626). The test can be described thus: apparent Kd, flow cytometry on SKOV3 cells (n = 2).

On to trast K129N-MB488 (antibody), for which the Kd came to 2.3 nM with HER2 [1], 3.1 nM with HER2 [2] and 3.2 nM in the test with HER2 [3].

Regarding “trast L189N-MB488: trastuzumab L189N mutant conjugated through Neu5NAz on Fd glycans (antibody)”, the Kd stood at 3.4 nM with HER2 [2] and 3.5 nM with HER2 [4].

Turning to trast T191N-MB488 (antibody), the Kd with HER2 [1] is 1.8 nM.

Consider “trast A158N-MB488: trastuzumab A158N mutant conjugated through Neu5NAz on Fd glycans (antibody)”, for which the Kd with HER2 [1] worked out at 2.6 nM; with HER2 [2] it was 3.3 nM; in the test with HER2 [3], 3.9 nM; in the test with HER2 [4], 3.5 nM.
